Laboratory results reported in the supplement of paper PMC5998384.

How the values were obtained:
HeLa Kyoto [1] = assay: solubility in G1/S (NP-40 vs SDS abundance) (log2 ratio); higher = more soluble; conditions: cell cycle stage: G1/S
HeLa Kyoto [2] = assay: solubility change mitosis vs G1/S (difference of NP-40 vs SDS log2 ratios) (log2 ratio difference); higher = more soluble in mitosis
HeLa Kyoto [3] = assay: thermal stability score vs G1/S (z-score of summed log2 fold changes over temperatures); higher = more thermally stable than in G1/S
HeLa Kyoto [4] = assay: melting temperature (median over replicates), in situ; higher = more thermally stable
[5] = cell cycle stage: early G1 (4.5 h after nocodazole release)
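Wherever melting temperature (median over replicates), in situ is given: HeLa Kyoto cells synchronized by double thymidine or nocodazole block, proteins quantified by TMT10plex mass spectrometry, three independent biological replicates.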
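Wherever solubility change mitosis vs G1/S (difference of NP-40 vs SDS log2 ratios) is given: synchronized HeLa Kyoto cells (double thymidine block for G1/S, nocodazole release for mitosis), protein amounts in NP-40 versus SDS lysates quantified by mass spectrometry, three biological replicates.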
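Wherever solubility in G1/S (NP-40 vs SDS abundance) is given: HeLa Kyoto cells arrested at G1/S by double thymidine block, proteins quantified by TMT10plex mass spectrometry in mild NP-40 versus SDS extracts, three biological replicates.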
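Wherever thermal stability score vs G1/S (z-score of summed log2 fold changes over temperatures) is given: synchronized HeLa Kyoto cells, proteins quantified by TMT10plex mass spectrometry, three biological replicates, mitosis taken 0.5 h after nocodazole release, G1/S directly after double thymidine block.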

Sequence	solubility in G1/S (log2) (HeLa Kyoto [1])	solubility change mitosis (log2) (HeLa Kyoto [2])	thermal stability score (HeLa Kyoto [3]; [5])	thermal stability score (HeLa Kyoto [3]; cell cycle stage: mitosis)	melting temperature (HeLa Kyoto [4]; cell cycle stage: G1/S) [°C]	melting temperature (HeLa Kyoto [4]; cell cycle stage: mitosis) [°C]
MPELAVQKVVVHPLVLLSVVDHFNRIGKVGNQKRVVGVLLGSWQKKVLDVSNSFAVPFDEDDKDDSVWFLDHDYLENMYGMFKKVNARERIVGWYHTGPKLHKNDIAINELMKRYCPNSVLVIIDVKPKDLGLPTEAYISVEEVHDDGTPTSKTFEHVTSEIGAEEAEEVGVEHLLRDIKDTTVGTLSQRITNQVHGLKGLNSKLLDIRSYLEKVATGKLPINHQIIYQLQDVFNLLPDVSLQEFVKAFYLKTNDQMVVVYLASLIRSVVALHNLINNKIANRDAEKKEGQEKEESKKDRKEDKEKDKDKEKSDVKKEEKKEKK [PSMD7]	0.121	0.00337	-0.335	-1.17	53.9	51.6
MPFDFRRFDIYRKVPKDLTQPTYTGAIISICCCLFILFLFLSELTGFITTEVVNELYVDDPDKDSGGKIDVSLNISLPNLHCELVGLDIQDEMGRHEVGHIDNSMKIPLNNGAGCRFEGQFSINKVPGNFHVSTHSATAQPQNPDMTHVIHKLSFGDTLQVQNIHGAFNALGGADRLTSNPLASHDYILKIVPTVYEDKSGKQRYSYQYTVANKEYVAYSHTGRIIPAIWFRYDLSPITVKYTERRQPLYRFITTICAIIGGTFTVAGILDSCIFTASEAWKKIQLGKMH [ERGIC1]	0.18	-0.178	-0.418	-0.585	55.2	55.6
MPFLELDTNLPANRVPAGLEKRLCAAAASILGKPADRVNVTVRPGLAMALSGSTEPCAQLSISSIGVVGTAEDNRSHSAHFFEFLTKELALGQDRILIRFFPLESWQIGKIGTVMTFL [DDT]	0.57	-0.0844	-2.25	-2.27	56.1	57.4
MPFPFGKSHKSPADIVKNLKESMAVLEKQDISDKKAEKATEEVSKNLVAMKEILYGTNEKEPQTEAVAQLAQELYNSGLLSTLVADLQLIDFEGKKDVAQIFNNILRRQIGTRTPTVEYICTQQNILFMLLKGYESPEIALNCGIMLRECIRHEPLAKIILWSEQFYDFFRYVEMSTFDIASDAFATFKDLLTRHKLLSAEFLEQHYDRFFSEYEKLLHSENYVTKRQSLKLLGELLLDRHNFTIMTKYISKPENLKLMMNLLRDKSRNIQFEAFHVFKVFVANPNKTQPILDILLKNQAKLIEFLSKFQNDRTEDEQFNDEKTYLVKQIRDLKRPAQQEA [CAB39]	0.0309	-0.178	0.362	2.14	54.3	55.4
MPGGLLLGDVAPNFEANTTVGRIRFHDFLGDSWGILFSHPRDFTPVCTTELGRAAKLAPEFAKRNVKLIALSIDSVEDHLAWSKDINAYNCEEPTEKLPFPIIDDRNRELAILLGMLDPAEKDEKGMPVTARVVFVFGPDKKLKLSILYPATTGRNFDEILRVVISLQLTAEKRVATPVDWKDGDSVMVLPTIPEEEAKKLFPKGVFTKELPSGKKYLRYTPQP [PRDX6]	0.444	0.118	-1.5	-3.41	53.9	54.5
MPGHLQEGFGCVVTNRFDQLFDDESDPFEVLKAAENKKKEAGGGGVGGPGAKSAAQAAAQTNSNAAGKQLRKESQKDRKNPLPPSVGVVDKKEETQPPVALKKEGIRRVGRRPDQQLQGEGKIIDRRPERRPPRERRFEKPLEEKGEGGEFSVDRPIIDRPIRGRGGLGRGRGGRGRGMGRGDGFDSRGKREFDRHSGSDRSSFSHYSGLKHEDKRGGSGSHNWGTVKDELTESPKYIQKQISYNYSDLDQSNVTEETPEGEEHHPVADTENKENEVEEVKEEGPKEMTLDEWKAIQNKDRAKVEFNIRKPNEGADGQWKKGFVLHKSKSEEAHAEDSVMDHHFRKPANDITSQLEINFGDLGRPGRGGRGGRGGRGRGGRPNRGSRTDKSSASAPDVDDPEAFPALA [SERBP1]	-0.123	0.395	-1.78	-8.72	58.8	–
MPGMVLFGRRWAIASDDLVFPGFFELVVRVLWWIGILTLYLMHRGKLDCAGGALLSSYLIVLMILLAVVICTVSAIMCVSMRGTICNPGPRKSMSKLLYIRLALFFPEMVWASLGAAWVADGVQCDRTVVNGIIATVVVSWIIIAATVVSIIIVFDPLGGKMAPYSSAGPSHLDSHDSSQLLNGLKTAATSVWETRIKLLCCCIGKDDHTRVAFSSTAELFSTYFSDTDLVPSDIAAGLALLHQQQDNIRNNQEPAQVVCHAPGSSQEADLDAELENCHHYMQFAAAAYGWPLYIYRNPLTGLCRIGGDCCRSRTTDYDLVGGDQLNCHFGSILHTTGLQYRDFIHVSFHDKVYELPFLVALDHRKESVVVAVRGTMSLQDVLTDLSAESEVLDVECEVQDRLAHKGISQAARYVYQRLINDGILSQAFSIAPEYRLVIVGHSLGGGAAALLATMLRAAYPQVRCYAFSPPRGLWSKALQEYSQSFIVSLVLGKDVIPRLSVTNLEDLKRRILRVVAHCNKPKYKILLHGLWYELFGGNPNNLPTELDGGDQEVLTQPLLGEQSLLTRWSPAYSFSSDSPLDSSPKYPPLYPPGRIIHLQEEGASGRFGCCSAAHYSAKWSHEAEFSKILIGPKMLTDHMPDILMRALDSVVSDRAACVSCPAQGVSSVDVA [DAGLB]	-0.195	-0.129	-0.332	-1.16	54.6	53.1
MPHFTVVPVDGPRRGDYDNLEGLSWVDYGERAELDDSDGHGNHRESSPFLSPLEASRGIDYYDRNLALFEEELDIRPKVSSLLGKLVSYTNLTQGAKEHEEAESGEGTRRRAAEAPSMGTLMGVYLPCLQNIFGVILFLRLTWMVGTAGVLQALLIVLICCCCTLLTAISMSAIATNGVVPAGGSYFMISRSLGPEFGGAVGLCFYLGTTFAAAMYILGAIEILLTYIAPPAAIFYPSGAHDTSNATLNNMRVYGTIFLTFMTLVVFVGVKYVNKFASLFLACVIISILSIYAGGIKSIFDPPVFPVCMLGNRTLSRDQFDICAKTAVVDNETVATQLWSFFCHSPNLTTDSCDPYFMLNNVTEIPGIPGAAAGVLQENLWSAYLEKGDIVEKHGLPSADAPSLKESLPLYVVADIATSFTVLVGIFFPSVTGIMAGSNRSGDLRDAQKSIPVGTILAIITTSLVYFSSVVLFGACIEGVVLRDKYGDGVSRNLVVGTLAWPSPWVIVIGSFFSTCGAGLQSLTGAPRLLQAIAKDNIIPFLRVFGHGKVNGEPTWALLLTALIAELGILIASLDMVAPILSMFFLMCYLFVNLACAVQTLLRTPNWRPRFKYYHWALSFLGMSLCLALMFVSSWYYALVAMLIAGMIYKYIEYQGAEKEWGDGIRGLSLSAARYALLRLEEGPPHTKNWRPQLLVLLKLDEDLHVKYPRLLTFASQLKAGKGLTIVGSVIQGSFLESYGEAQAAEQTIKNMMEIEKVKGFCQVVVASKVREGLAHLIQSCGLGGMRHNSVVLGWPYGWRQSEDPRAWKTFIDTVRCTTAAHLALLVPKNIAFYPSNHERYLEGHIDVWWIVHDGGMLMLLPFLLRQHKVWRKCRMRIFTVAQMDDNSIQMKKDLAVFLYHLRLEAEVEVVEMHNSDISAYTYERTLMMEQRSQMLRQMRLTKTEREREAQLVKDRHSALRLESLYSDEEDESAVGADKIQMTWTRDKYMTETWDPSHAPDNFRELVHIKPDQSNVRRMHTAVKLNEVIVTRSHDARLVLLNMPGPPRNSEGDENYMEFLEVLTEGLERVLLVRGGGREVITIYS [SLC12A4]	0.0648	-0.148	0.505	0.0338	54.3	54.2
MPHIDNDVKLDFKDVLLRPKRSTLKSRSEVDLTRSFSFRNSKQTYSGVPIIAANMDTVGTFEMAKVLCKFSLFTAVHKHYSLVQWQEFAGQNPDCLEHLAASSGTGSSDFEQLEQILEAIPQVKYICLDVANGYSEHFVEFVKDVRKRFPQHTIMAGNVVTGEMVEELILSGADIIKVGIGPGSVCTTRKKTGVGYPQLSAVMECADAAHGLKGHIISDGGCSCPGDVAKAFGAGADFVMLGGMLAGHSESGGELIERDGKKYKLFYGMSSEMAMKKYAGGVAEYRASEGKTVEVPFKGDVEHTIRDILGGIRSTCTYVGAAKLKELSRRTTFIRVTQQVNPIFSEAC [GMPR2]	0.0286	-0.137	-0.68	-2.3	56.3	59.4
MPHLPLASFRPPFWGLRHSRGLPRFHSVSTQSEPHGSPISRRNREAKQKRLREKQATLEAEIAGESKSPAESIKAWRPKELVLYEIPTKPGEKKDVSGPLPPAYSPRYVEAAWYPWWVREGFFKPEYQARLPQATGETFSMCIPPPNVTGSLHIGHALTVAIQDALVRWHRMRGDQVLWVPGSDHAGIATQAVVEKQLWKERGVRRHELSREAFLREVWQWKEAKGGEICEQLRALGASLDWDRECFTMDVGSSVAVTEAFVRLYKAGLLYRNHQLVNWSCALRSAISDIEVENRPLPGHTQLRLPGCPTPVSFGLLFSVAFPVDGEPDAEVVVGTTRPETLPGDVAVAVHPDDSRYTHLHGRQLRHPLMGQPLPLITDYAVQPHVGTGAVKVTPAHSPADAEMGARHGLSPLNVIAEDGTMTSLCGDWLQGLHRFVAREKIMSVLSEWGLFRGLQNHPMVLPICSRSGDVIEYLLKNQWFVRCQEMGARAAKAVESGALELSPSFHQKNWQHWFSHIGDWCVSRQLWWGHQIPAYLVVEDHAQGEEDCWVVGRSEAEAREVAAELTGRPGAELTLERDPDVLDTWFSSALFPFSALGWPQETPDLARFYPLSLLETGSDLLLFWVGRMVMLGTQLTGQLPFSKVLLHPMVRDRQGRKMSKSLGNVLDPRDIISGVEMQVLQEKLRSGNLDPAELAIVAAAQKKDFPHGIPECGTDALRFTLCSHGVQAGDLHLSVSEVQSCRHFCNKIWNALRFILNALGEKFVPQPAEELSPSSPMDAWILSRLALAAQECERGFLTRELSLVTHALHHFWLHNLCDVYLEAVKPVLWHSPRPLGPPQVLFSCADLGLRLLAPLMPFLAEELWQRLPPRPGCPPAPSISVAPYPSACSLEHWRQPELERRFSRVQEVVQVLRALRATYQLTKARPRVLLQSSEPGDQGLFEAFLEPLGTLGYCGAVGLLPPGAAAPSGWAQAPLSDTAQVYMELQGLVDPQIQLPLLAARRYKLQKQLDSLTARTPSEGEAGTQRQQKLSSLQLELSKLDKAASHLRQLMDEPPAPGSPEL [VARS2]	-0.0605	0.0161	0.335	0.452	52	52.1
MPILKQLVSSSVHSKRRSRADLTAEMISAPLGDFRHTMHVGRAGDAFGDTSFLNSKAGEPDGESLDEQPSSSSSKRSLLSRKFRGSKRSQSVTRGEREQRDMLGSLRDSALFVKNAMSLPQLNEKEAAEKGTSKLPKSLSSSPVKKANDGEGGDEEAGTEEAVPRRNGAAGPHSPDPLLDEQAFGDLTDLPVVPKATYGLKHAESIMSFHIDLGPSMLGDVLSIMDKEEWDPEEGEGGYHGDEGAAGTITQAPPYAVAAPPLARQEGKAGPDLPSLPSHALEDEGWAAAAPSPGSARSMGSHTTRDSSSLSSCTSGILEERSPAFRGPDRARAAVSRQPDKEFSFMDEEEEDEIRV [CDC42EP4]	0.487	-0.0259	-3.73	-2.19	53.6	51.8
MPKCPKCNKEVYFAERVTSLGKDWHRPCLKCEKCGKTLTSGGHAEHEGKPYCNHPCYAAMFGPKGFGRGGAESHTFK [CRIP1]	-0.362	0.414	-4.54	-5.63	57.6	53.5
MPKFKAARGVGGQEKHAPLADQILAGNAVRAGVREKRRGRGTGEAEEEYVGPRLSRRILQQARQQQEELEAEHGTGDKPAAPRERTTRLGPRMPQDGSDDEDEEWPTLEKAATMTAAGHHAEVVVDPEDERAIEMFMNKNPPARRTLADIIMEKLTEKQTEVETVMSEVSGFPMPQLDPRVLEVYRGVREVLSKYRSGKLPKAFKIIPALSNWEQILYVTEPEAWTAAAMYQATRIFASNLKERMAQRFYNLVLLPRVRDDVAEYKRLNFHLYMALKKALFKPGAWFKGILIPLCESGTCTLREAIIVGSIITKCSIPVLHSSAAMLKIAEMEYSGANSIFLRLLLDKKYALPYRVLDALVFHFLGFRTEKRELPVLWHQCLLTLVQRYKADLATDQKEALLELLRLQPHPQLSPEIRRELQSAVPRDVEDVPITVE [BYSL]	-0.343	0.115	1.85	5.44	48.3	49
